Measured values reported in paper PMC12834914, “The biochemical dynamics of the glycogen phosphatase laforin directly impact brain metabolism” (The Journal of Biological Chemistry, 2025).

B1: protein targeting to glycogen (Gal4 activation domain fusion) (natural protein, UniProt Q9UQK1 1-317, looked up)
chain: MSCTRMIQVLDPRPLTSSVMPVDVAMRLCLAHSPPVKSFLGPYDEFQRRHFVNKLKPLKSCLNIKHKAKSQNDWKCSHNQAKKRVVFADSKGLSLTAIHVFSDLPEEPAWDLQFDLLDLNDISSALKHHEEKNLILDFPQPSTDYLSFRSHFQKNFVCLENCSLQERTVTGTVKVKNVSFEKKVQIRITFDSWKNYTDVDCVYMKNVYGGTDSDTFSFAIDLPPVIPTEQKIEFCISYHANGQVFWDNNDGQNYRIVHVQWKPDGVQTQMAPQDCAFHQTSPKTELESTIFGSPRLASGLFPEWQSWGRMENLASYR
notes: protein targeting to glycogen (PTG); also called PTG; source: yeast two-hybrid fusion (S. cerevisiae, pACT2)
B2: malin (Gal4 activation domain fusion) (natural protein, UniProt Q6VVB1 1-395, looked up)
chain: MAAEASESGPALHELMREAEISLLECKVCFEKFGHRQQRRPRNLSCGHVVCLACVAALAHPRTLALECPFCRRACRGCDTSDCLPVLHLIELLGSALRQSPAAHRAAPSAPGALTCHHTFGGWGTLVNPTGLALCPKTGRVVVVHDGRRRVKIFDSGGGCAHQFGEKGDAAQDIRYPVDVTITNDCHVVVTDAGDRSIKVFDFFGQIKLVIGGQFSLPWGVETTPQNGIVVTDAEAGSLHLLDVDFAEGVLRRTERLQAHLCNPRGVAVSWLTGAIAVLEHPLALGTGVCSTRVKVFSSSMQLVGQVDTFGLSLYFPSKITASAVTFDHQGNVIVADTSGPAILCLGKPEEFPVPKPMVTHGLSHPVALTFTKENSLLVLDTASHSIKVYKVDWG
notes: malin; source: yeast two-hybrid fusion (S. cerevisiae, pACT2)

Molecular target: T1, laforin C266S (LexA fusion) (human, UniProt O95278 1-331, C266S)
T1 construct: laforin, glycogen phosphatase encoded by EPM2A, catalytic cysteine mutated to serine; in mouse laforin the same change is C265S; also called LCS; laforin C/S; source: yeast two-hybrid fusion (S. cerevisiae, pEG202)
T1 sequence (looked up): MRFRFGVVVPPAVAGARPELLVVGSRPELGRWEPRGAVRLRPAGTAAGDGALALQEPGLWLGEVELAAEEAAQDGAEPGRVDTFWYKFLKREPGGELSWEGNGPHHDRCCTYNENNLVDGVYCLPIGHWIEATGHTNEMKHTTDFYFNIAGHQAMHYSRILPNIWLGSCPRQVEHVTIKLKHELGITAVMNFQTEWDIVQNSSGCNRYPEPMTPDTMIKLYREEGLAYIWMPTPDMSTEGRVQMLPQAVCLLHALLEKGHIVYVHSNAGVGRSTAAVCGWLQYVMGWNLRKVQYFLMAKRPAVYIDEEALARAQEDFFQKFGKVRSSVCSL
Test: two-hybrid; LexA-laforin (pEG202) with Gal4 activation domain-malin or -PTG (pACT2) in S. cerevisiae; beta-galactosidase activity in yeast cell extract, in Miller Units
Details: partners not purified

Row | Binder | fold signal against WT laforin [fold]
1 | B1 | ~2
2 | B2 | ~2
